Test results taken from the RNAGym collection of RNA variant scans (doi:10.1073/pnas.2313332121).
This sample holds only a part of the variants without activity.

B1: TPR 5TU (parent)
chain: GGAUCUUCUCGAUCUAACAAAAAAGACAAAUCUGCCACAAAGCUUGAGAGCAUCUUCGGAUGCAGAGGCGGCAGCCUUCGGUGGCGCGAUAGCGCCAACGUUCUCAACUAUGACACGCAAAACGCGUGCUCCGUUGAAUGGAGUUUAUCAUG

Variants of: B1
Assay: polymerase ribozyme fitness, log enrichment relative to wild type (log ratio); higher = more active; in vitro selection for triplet polymerase activity
Summary of the method: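 Frozen incubation at −7 °C formed the core of a single, triplicate in vitro selection round applied to PCR-built, transcribed mutant libraries of each subunit of a heterodimeric triplet polymerase ribozyme. Extended constructs were gel-excised, captured with streptavidin beads and amplified by RT-PCR, and input and output libraries were Illumina-sequenced with a filter of ≥10 input reads and ≥1 read per output. Fitness is the logarithm of genotype enrichment relative to wild-type enrichment, with inverse-variance-weighted replicate averaging, and the logarithm is base 2.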

Variant	polymerase ribozyme fitness (log ratio)
C69A G70A	-4.19
A66C G71A A73G G83C U151A	≤ -4.2
G68A G92C	-4.16
C69A A119U	-2.7
C69A C79A A115U C118A	≤ -4.2
G71A C95U C132U	-4.11
G71C C95U C132U G141A U146G	≤ -4.2
G68A C85G	≤ -4.2
G68A C85U	-3.48
C69A A91C A122U A142C	≤ -4.2
G68A G88A C96G C118A G126A	-4.16
G71A C76G U82A G83C C131A	≤ -4.2
C69G C85U A91G C118A C129G U144A	≤ -4.2
G68U C85G	≤ -4.2
C69U C76U A97U U109G G112C C125A	≤ -4.2
C69G C85A G94U	-1.01
A66C G71C G84U	≤ -4.2
C69A C118G	-2.21
C69A C118U	-1.62
C69U A106C	-2.21
G68A U139C	≤ -4.2
C69G	-1.51
C69U	-1.03
C69A	-1.57

Variant	polymerase ribozyme fitness (log ratio)
G67U A89C C96G A106C A119C	≤ -4.2
C69U G126A	0.958
G71U A142C	≤ -4.2
G68A C69G G80A U104G	≤ -4.2
A66G A106G U139A	≤ -4.2
G71A C85G C87U	≤ -4.2
C69U G94A A122G U135A U146G	-2.95
G67U U146C	-2.47
G68A C93U A98U G117U	≤ -4.2
G71A A91U C95G A119U A121G C129A A147G	≤ -4.2
C69A C76U A98U C125U	-1.9
G71C U82C	-2.48
C69G U101G G133U	-3.95
G70U G84U C87U G100A	≤ -4.2
G70C G84U A107U	≤ -4.2
C69A G83C U101G	≤ -4.2
A66G U102A U135C	≤ -4.2
A66G C105U	-3.63
G68A A138G	≤ -4.2
A66G C85U U111G U146A	≤ -4.2
C69G C72U U134A	≤ -4.2
G68U C85U U144A	-4.15
C69U G84A A106C	-2.41
G68A C93G C129A U130A	≤ -4.2

Variant	polymerase ribozyme fitness (log ratio)
G70A G84A C87G A113C A120G	≤ -4.2
C69G C99A A115G	-3.71
G68A A91G G128A	≤ -4.2
G71U A89U	-2.83
G68U C85A A110G C132G A137G G141C U151G	≤ -4.2
A66G C123G	≤ -4.2
A66C A73C	≤ -4.2
A66U G68C C105A	≤ -4.2
G68U C103U G141C	≤ -4.2
G71C G83U G141A A147C C149A	≤ -4.2
A66C C69U C96U	≤ -4.2
C69U G71U C87U A89C	-3.31
G70A A91U C123U A138C C149U	≤ -4.2
C69G C72U	-2.71
G67U U102G	≤ -4.2
A66G C93U A107U A138U U139A	≤ -4.2
G68C A91C A106U U127A	≤ -4.2
G70A G74A U101G U104C A147U	≤ -4.2
G70A C96U	-2.89
G71C C93U C95G C99G A115C	-3.95
C69A G143U	-3.34
G67C C69G A91U	≤ -4.2
C69A C76A U109C	≤ -4.2
C69G C93G	-3.97

Variant	polymerase ribozyme fitness (log ratio)
C69G C93A	≤ -4.2
C69A U101G G126A	-0.681
G67U A120U	-2.15
G71A C99U	≤ -4.2
C69U G70C C93G C114A A150C	≤ -4.2
G68C C85U	-3.93
G71C G84A A119U	-2.68
G70A A97G	-3.26
G70A A97U	-3.59
C69G U77C C87U G140U	≤ -4.2
C69A C85G A121C	-3.43
C69A A73G	-2.98
G70U G80U A119G	≤ -4.2
G68C G83A	≤ -4.2
G70C G88U A91G C95A A119G U144C U148C	≤ -4.2
A66C C76U U82G C85G C125G	≤ -4.2
G68C C85G G136C	≤ -4.2
G70C U134G	-4.17
G67A A98U U139C U148A	≤ -4.2
G68A C123U	-3.89
G68U C99U G117C G143A	≤ -4.2
A66G C93U C108U C132G C149A	≤ -4.2
G68C U104G C105G C118U G133C	≤ -4.2
G71U A89U U135A	≤ -4.2

Variant	polymerase ribozyme fitness (log ratio)
G70C C96U G100A C118G A120C	≤ -4.2
C69U C85A	-3.16
C69U C85G	-2.16
G70U A119C	-2.09
G71A C87A G92C	-3.04
G71U A147C	-3.65
G70A A122U	-3.6
A66C G84A C87U	≤ -4.2
G68A C79U U139G U146C	≤ -4.2
G68C U78A	≤ -4.2
G67U C76G G143A A150G	≤ -4.2
G67C C93U A107C C125G	≤ -4.2
A66G C93A C95A C96U C116U	≤ -4.2
G67A C96A	-3.46
G67U G74C C103U A121U A137C U144G	≤ -4.2
A66U C96A U111A A122G A138C	≤ -4.2
G68C C103U	≤ -4.2
G68U U101C	-4.07
G70U A122C U144G	-2.06
A66U C87A A106U G143C	≤ -4.2
G70A C79A C87G C99U C105U A142G	≤ -4.2
G67A C114U U134G A150C	≤ -4.2
A66G U90G C93G	≤ -4.2
C69G G88A U90G U146A	≤ -4.2

Variant	polymerase ribozyme fitness (log ratio)
G68C C93G C131A	≤ -4.2
G70A G86A A89G C99A	≤ -4.2
G68A G80A G86U U90G A91G G136A A142G	≤ -4.2
C69A C75U A106G A120G	-2.33
G67U G94C A119C U134G A147C	≤ -4.2
G68C A122C	≤ -4.2
G67C G71C G86A A107U A121U U144G	≤ -4.2
G68C C79A G83U U101A U104C C108G A142G	≤ -4.2
A66G G81U C87G C99U U104G U134A A142U	≤ -4.2
A66U A89G	≤ -4.2
G70U C76A	-4.19
C69A G83C	-3.07
C69A G83A G143U	-3.59
G67U C87U	-3.88
G68A U77A G81A U111A G126U	≤ -4.2
C69A G71U	-0.808
G68C G84A C85A	≤ -4.2
A66G C96A A98G G136U	≤ -4.2
G68A C93U	-4.04
A66G G68C U102A	≤ -4.2
A66G C69A G84U A138U	≤ -4.2
C69A G83A A121C	-1.84
G67C G83A C123G	≤ -4.2
G71C C85U	-3.27

Variant	polymerase ribozyme fitness (log ratio)
G71A A91U U146G	≤ -4.2
G67C G84A C99U C105A A115C A137C G141A	≤ -4.2
C69A A91U	≤ -4.2
C69A A91G	-3.81
A66C C85G G141A U146C	≤ -4.2
G71C A91U G136C	≤ -4.2
C69A U144C	-1.07
G68A G74C G88A	≤ -4.2
C69U U78A A97U G143C	≤ -4.2
G67C G68A G83A U90A G117A	≤ -4.2
G68U A73U G94A A119U	≤ -4.2
G70U A73U A89G C95G G141U	≤ -4.2
G71U A91U A122G G143U U145C	≤ -4.2
G67U G83U U101G	≤ -4.2
G68U C69A A113G G117A	≤ -4.2
C69G C103G C116U	-2.03
C69A G84A	-2.31
G70A C93U G141C	≤ -4.2
C69U C75U G92A U104G G133U C149U	≤ -4.2
G67C G86C C96A G112U A113U G126U	≤ -4.2
G67C A97C C103G C125U C129U A142U G143C A150U	≤ -4.2
G70C G126U G152A	-3.99
G68U C95U C96U A113C G124U	≤ -4.2
